# Measurements as given in patent US20210277141A1 (ORIMABS, published 2021).
# B1: PSMAb-DM1 (antibody, human IgG1, lambda, V domains shown)
# VH: EVQLVESGGALAKPGGSLRLSCAASGFTLSGYAMHWVRQAPGKGLEWVAVISYDGSNKYYADSVKGRFTVSRDNSKNTLFLQMNSLRPEDTAVYYCAKGLTWGLGDNDALDIWGPGTTVTVSS
# VL: QSVLTQPPSVSGAPGQSVIISCTGSSSNIGAGSHVHWYQQVPGTAPKLLIYENTNRPSGVPDRFSGSKSGTSGSLAITGLQPEDEADYYCATWDDSLNGVIFGGGTKATVLG
# modifications: DM1 through SMCC linker, drug/Ab conjugation ratio 3.3 per antibody; conjugated residues and chain not stated
# notes: also called PSMAb-ADC; PSMAb conjugate with DM1
# B2: PSMAb (full IgG1 antibody engineered from gy1-2 scFv) (antibody, V domains shown)
# VH: EVQLVESGGALAKPGGSLRLSCAASGFTLSGYAMHWVRQAPGKGLEWVAVISYDGSNKYYADSVKGRFTVSRDNSKNTLFLQMNSLRPEDTAVYYCAKGLTWGLGDNDALDIWGPGTTVTVSS
# VL: QSVLTQPPSVSGAPGQSVIISCTGSSSNIGAGSHVHWYQQVPGTAPKLLIYENTNRPSGVPDRFSGSKSGTSGSLAITGLQPEDEADYYCATWDDSLNGVIFGGGTKATVLG
# notes: IgG1 heavy constant region and lambda light constant region; expressed in CHO-S cells; also called PSMAb full antibody
# B3: PSMAb-MMAF (antibody, human IgG1, lambda, V domains shown)
# VH: EVQLVESGGALAKPGGSLRLSCAASGFTLSGYAMHWVRQAPGKGLEWVAVISYDGSNKYYADSVKGRFTVSRDNSKNTLFLQMNSLRPEDTAVYYCAKGLTWGLGDNDALDIWGPGTTVTVSS
# VL: QSVLTQPPSVSGAPGQSVIISCTGSSSNIGAGSHVHWYQQVPGTAPKLLIYENTNRPSGVPDRFSGSKSGTSGSLAITGLQPEDEADYYCATWDDSLNGVIFGGGTKATVLG
# modifications: MC-vc-PAB-MMAF after partial reduction with TCEP, drug loading 3.03 per antibody; conjugated residues and chain not stated
# notes: also called PSMAb-ADC; PSMAb conjugate with MMAF
# B4: PSMAb-MMAE (antibody, human IgG1, lambda, V domains shown)
# VH: EVQLVESGGALAKPGGSLRLSCAASGFTLSGYAMHWVRQAPGKGLEWVAVISYDGSNKYYADSVKGRFTVSRDNSKNTLFLQMNSLRPEDTAVYYCAKGLTWGLGDNDALDIWGPGTTVTVSS
# VL: QSVLTQPPSVSGAPGQSVIISCTGSSSNIGAGSHVHWYQQVPGTAPKLLIYENTNRPSGVPDRFSGSKSGTSGSLAITGLQPEDEADYYCATWDDSLNGVIFGGGTKATVLG
# modifications: MC-vc-PAB-MMAE after partial reduction with TCEP, drug loading 3.5 per antibody; conjugated residues and chain not stated
# notes: also called PSMAb-ADC; PSMAb conjugate with MMAE
# B5: gy1 scFv (secreted by yeast strain YVH10) (scFv)
# scFv: QSVLTQPPSVSGAPGQSVIISCTGSSSNIGAGSHVHWYQQVPGTAPKLLIYGNTNRPSGVPDRFSGSKSGTSGSLAITGLQPEDEADYYCATWDDSLNGVIFGGGTKVTVLGGSSRSSSSGGGGSGGGGEVQLVESGGALAKPGGSLRLSCAASGSTLSGYAMHWVRQAPGKGLEWVAVISYDGSNKYYADSVKGRFTISRDNSKNTLFLQMNSLRPEDTAVYYCAKGLTWGLGDNDALDIWGPGTTVTVSS
# notes: also called scFv gy1; anti-PSMA scFv gy1; not shown: Flag tag at the N terminus; V5 tag at the C terminus; 6xHis tag at the C terminus
# B6: E. coli expressed gy1 scFv (pET302-gy1, BL21) (scFv)
# scFv: QSVLTQPPSVSGAPGQSVIISCTGSSSNIGAGSHVHWYQQVPGTAPKLLIYGNTNRPSGVPDRFSGSKSGTSGSLAITGLQPEDEADYYCATWDDSLNGVIFGGGTKVTVLGGSSRSSSSGGGGSGGGGEVQLVESGGALAKPGGSLRLSCAASGSTLSGYAMHWVRQAPGKGLEWVAVISYDGSNKYYADSVKGRFTISRDNSKNTLFLQMNSLRPEDTAVYYCAKGLTWGLGDNDALDIWGPGTTVTVSS
# notes: also called E. coli expressed scFv gy1; not shown: His tag (purified on HisTrp HP column, detected with anti-6His)
# Key:
# [1] = target: T1, Prostate specific membrane antigen (PSMA) expressed on cell surface (human, UniProt Q04609 1-750); test: cell-based or functional assay
# T1 sequence (Q04609 whole entry): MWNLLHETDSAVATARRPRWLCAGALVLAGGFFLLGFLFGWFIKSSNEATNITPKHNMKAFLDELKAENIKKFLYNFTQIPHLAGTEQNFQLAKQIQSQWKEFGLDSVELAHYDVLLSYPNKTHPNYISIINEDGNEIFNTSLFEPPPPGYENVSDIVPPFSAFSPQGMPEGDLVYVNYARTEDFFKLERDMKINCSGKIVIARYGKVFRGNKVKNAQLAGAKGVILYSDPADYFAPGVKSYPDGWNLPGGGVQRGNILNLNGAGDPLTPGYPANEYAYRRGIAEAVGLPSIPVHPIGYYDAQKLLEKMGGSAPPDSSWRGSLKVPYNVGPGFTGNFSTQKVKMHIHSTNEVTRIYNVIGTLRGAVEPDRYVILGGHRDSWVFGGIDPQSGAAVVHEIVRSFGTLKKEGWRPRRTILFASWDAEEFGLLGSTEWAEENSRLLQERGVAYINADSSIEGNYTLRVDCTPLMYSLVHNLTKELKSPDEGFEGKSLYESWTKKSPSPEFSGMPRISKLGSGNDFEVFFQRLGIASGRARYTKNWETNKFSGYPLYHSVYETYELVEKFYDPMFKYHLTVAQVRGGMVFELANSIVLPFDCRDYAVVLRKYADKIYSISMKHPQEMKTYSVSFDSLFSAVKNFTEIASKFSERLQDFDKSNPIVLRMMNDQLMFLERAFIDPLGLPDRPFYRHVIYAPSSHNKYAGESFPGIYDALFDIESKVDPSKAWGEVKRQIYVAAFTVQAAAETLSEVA
# [2] = target: T1, Prostate specific membrane antigen …; test: cell ELISA on fixed C4-2 cells, 100 nM to 0.19 pM, HRP anti-human IgG Fc
# [3] = target: T1, Prostate specific membrane antigen …; test: cell ELISA on fixed C4-2 cells; 3-fold dilutions from 100 nM to 0.19 pM; detection with HRP anti-human IgG Fc, TMB
# [4] = target: T2, PSMA (form not stated; as named in the summary sentence of paragraph 43) (UniProt Q04609 44-750, limits assumed); test: not stated (summary sentence in the description)
# T2 construct: The summary sentence gives neither the assay nor the form of PSMA, so the value could not be assigned to m8, m9 or m10; also called prostate specific membrane antigen
# T2 sequence (Q04609 44-750 limits assumed): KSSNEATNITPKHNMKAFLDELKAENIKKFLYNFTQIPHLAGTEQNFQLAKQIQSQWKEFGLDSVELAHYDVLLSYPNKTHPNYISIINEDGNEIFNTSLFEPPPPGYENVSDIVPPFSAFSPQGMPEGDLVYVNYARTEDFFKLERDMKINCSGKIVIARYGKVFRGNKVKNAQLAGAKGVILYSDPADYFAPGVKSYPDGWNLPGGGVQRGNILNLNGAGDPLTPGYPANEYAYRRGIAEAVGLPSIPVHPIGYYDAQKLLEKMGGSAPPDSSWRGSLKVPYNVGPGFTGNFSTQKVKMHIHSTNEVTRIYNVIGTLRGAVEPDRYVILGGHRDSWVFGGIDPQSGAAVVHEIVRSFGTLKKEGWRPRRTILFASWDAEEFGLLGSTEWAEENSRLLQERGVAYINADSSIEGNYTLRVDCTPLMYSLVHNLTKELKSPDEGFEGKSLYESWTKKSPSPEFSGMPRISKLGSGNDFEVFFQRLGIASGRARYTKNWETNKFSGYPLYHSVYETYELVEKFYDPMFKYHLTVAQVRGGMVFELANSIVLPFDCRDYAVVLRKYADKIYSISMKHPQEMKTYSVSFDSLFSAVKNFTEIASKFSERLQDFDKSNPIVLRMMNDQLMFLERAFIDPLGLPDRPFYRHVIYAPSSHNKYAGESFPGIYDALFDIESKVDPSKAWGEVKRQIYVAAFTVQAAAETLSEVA
# [5] = target: T3, biotinylated recombinant extracellular domain of human PSMA (human, UniProt Q04609 44-750, biotinylated with EZ-Link Sulfo-NHS-Biotin (protein:biotin 1:20); residues not stated); test: capture ELISA: scFv (100 nM to 0.137 nM) captured on anti-Flag, 0.5 µg/ml biotinylated PSMA, streptavidin-HRP; GraphPad Prism
# T3 construct: Bought from R&D systems; also called biotinylated PSMA; biotinylated PSMA protein
# T3 sequence (Q04609 44-750): as the sequence (Q04609 44-750 limits assumed) above
# Protocol: (§1) Briefly, anti-Flag antibody (Sigma) was coated on ELISA plate at 4° C. overnight in PBS. […] Plate was then washed and incubated with biotinylated PSMA and the binding was detected with streptavidin-HRP, and analyzed by colorimetric development using TMB and then stop buffer. Absorbance at OD450 was measured and the affinity was calculated using GraphPad Prism software.
# (§2) There is a Flag tag and a V5 tag at the N and C terminus of scFv, and thus antibodies to these tags were used to capture the scFv for ELISA assay. Briefly, anti-Flag antibody (Sigma) was coated on ELISA plate at 1 μg/ml, 50 μl/well at 4° C. overnight in PBS. […] Plate was washed 6 times with PBST and then incubated with 0.5 μg/ml biotinylated PSMA in PBS™ for 1 more hour at RT. After 6 washes, plate was incubated with 1:1000 diluted streptavidin-HRP (BD Bioscience) in PBS™ at RT for 30 min. Plate was washed again for 6 times and incubated with TMB for 20 min at RT, colorimertric reaction was stopped with stop buffer and the absorbance was read at OD450.
# [6] = target: T3, biotinylated recombinant extracellular …; test: capture ELISA: anti-Flag coated, gy1 scFv in 3-fold dilutions, 0.5 ug/ml biotinylated PSMA, streptavidin-HRP, TMB
# Protocol: as §1, §2
# [7] = target: T1, Prostate specific membrane antigen …; test: cell ELISA on fixed C4-2 cells, 8100 nM to 0.005 nM, HRP anti-6His; one-site binding hyperbola
# Protocol: (§3) Briefly, C4-2 cultured in 96-well plate were fixed with 4% paraformaldehyde, blocked with 3% H₂O₂ and 6% bovine serum albumin sequentially. […] Cell binding was detected with HRP-conjugated mouse anti-6His and colorimetric signals were developed by TMB and stopped by STOP buffer.
# (§4) The next day, cells were fixed with 4% paraformaldehyde for 20 min before being treated with 3% H₂O₂ for 20 minutes to block endogenous peroxidase followed by blocking with 6% bovine serum albumin for 30 min at room temperature. […] Cells were then washed with PBST and incubated with HRP-conjugated mouse anti-6His antibody (AbD Serotec, Bio-Rad, Oxford, UK) for 1h at room temperature. Colorimetric signals were developed by addition of 3, 3′, 5, 5′-tetramethylbenzidine (TMB, eBioscience, CA, USA) and stopped by incubation with 1 M […] for 15 minutes. The absorbance was measured at 450 nm using a Sunrise microplate reader (Tecan, Groedig, Austria) and the binding curves were analyzed using GraphPad Prism 5.0 software.
# [8] = target: T1, Prostate specific membrane antigen …; test: cell ELISA on fixed C4-2 cells; 3-fold dilutions, 1 h, 37 °C; detection with HRP mouse anti-6His, TMB
# Protocol: as §3, §4
binder,measurement,setting,value
B1,"IC50 of cytotoxicity on C4-2 cells (alamarBlue, 4 days)",[1],0.12 nM
B2,Kd,[2],0.1 nM
same,EC50 (read off the curve),[3],~0.1 nM
B3,"IC50 of cytotoxicity on C4-2 cells (alamarBlue, 4 days)",[1],0.92 nM
B4,"IC50 of cytotoxicity on C4-2 cells (alamarBlue, 4 days)",[1],0.59 nM
B5,Kd,[4],0.9 nM
same,Kd,[5],1.17 nM
same,EC50 (read off the curve),[6],~1 nM
B6,Kd,[7],4.13 nM
same,EC50 (read off the curve),[8],~300 nM
